# Test results reported in article PMC10279719 (Nature Communications, 2023).
# Non-standard residues stand in square brackets, D forms with d. pY = N[C@@H](Cc1ccc(OP(=O)(O)O)cc1)C(=O)O
# B1: PEAK2^709–721 peptide (Ac-FSPPPPPPKSRHL-NH2) (peptide)
# peptide: Ac-FSPPPPPPKSRHL-NH2
# notes: human PEAK2 (SgK223, PRAG1) residues 709-721; also called second PRM of PEAK2; source: synthetic peptide, bought: Mimotopes
# B2: PEAK3^54–66 peptide (Ac-PLPPPLPKKILTR-NH2) (peptide)
# peptide: Ac-PLPPPLPKKILTR-NH2
# notes: also called PEAK3 PRM peptide; source: synthetic peptide, bought: Mimotopes
# B3: PEAK2IDR1 (PEAK2 residues 802-1406) (domain or fragment, human, UniProt Q86YV5 802-1406, looked up)
# chain: EDVSPSGPQQPPPLPQKKIVSRAASSPDGFFWTQGSPKPGTASPKLNLSHSETNVHDESHFSYSLSPGNRHHPVFSSSDPLEKAFKGSGHWLPAAGLAGNRGGCGSPGLQCKGAPSASSSQLSVSSQASTGSTQLQLHGLLSNISSKEGTYAKLGGLYTQSLARLVAKCEDLFMGGQKKELHFNENNWSLFKLTCNKPCCDSGDAIYYCATCSEDPGSTYAVKICKAPEPKTVSYCSPSVPVHFNIQQDCGHFVASVPSSMLSSPDAPKDPVPALPTHPPAQEQDCVVVITREVPHQTASDFVRDSAASHQAEPEAYERRVCFLLLQLCNGLEHLKEHGIIHRDLCLENLLLVHCTLQAGPGPAPAPAPAPAPAAAAPPCSSAAPPAGGTLSPAAGPASPEGPREKQLPRLIISNFLKAKQKPGGTPNLQQKKSQARLAPEIVSASQYRKFDEFQTGILIYELLHQPNPFEVRAQLRERDYRQEDLPPLPALSLYSPGLQQLAHLLLEADPIKRIRIGEAKRVLQCLLWGPRRELVQQPGTSEEALCGTLHNWIDMKRALMMMKFAEKAVDRRRGVELEDWLCCQYLASAEPGALLQSLKLLQLL
# modifications: phosphorylated at the tandem site 14-3-3 motif (RAASSP) by LC MS/MS
# notes: PEAK2 (SgK223, PRAG1), human, UniProt Q86YV5, residues 802-1406; Homodimer by SEC-MALS; TEV-cleavable tag
# B4: PEAK3 23-38-pY24 peptide (Ac-T(pY)SNLGQIRAHLLPSK-NH2) (peptide)
# peptide: Ac-T[pY]SNLGQIRAHLLPSK-NH2
# SMILES: CC[C@H](C)[C@H](NC(=O)[C@H](CCC(N)=O)NC(=O)CNC(=O)[C@H](CC(C)C)NC(=O)[C@H](CC(N)=O)NC(=O)[C@H](CO)NC(=O)[C@H](Cc1ccc(OP(=O)(O)O)cc1)NC(=O)[C@@H](NC(C)=O)[C@@H](C)O)C(=O)N[C@@H](CCCNC(=N)N)C(=O)N[C@@H](C)C(=O)N[C@@H](Cc1c[nH]cn1)C(=O)N[C@@H](CC(C)C)C(=O)N[C@@H](CC(C)C)C(=O)N1CCC[C@H]1C(=O)N[C@@H](CO)C(=O)N[C@@H](CCCCN)C(N)=O
# notes: source: synthetic peptide, bought: Mimotopes (95% purity)
# B5: PEAK3^tandem peptide, non-phosphorylated (residues 54–74; Ac-PLPPPLPKKILTRTQSLPTRR-NH2) (peptide)
# peptide: Ac-PLPPPLPKKILTRTQSLPTRR-NH2
# notes: source: synthetic peptide, bought: Mimotopes
# Key:
# [1] = biological target: T1, CrkII NSH3 domain (CrkII^NSH3, residues 134–191) (human, UniProt P46108-1 134-191); assay: SPR; Biacore S200; CrkII^NSH3 amine coupled to CM5, peptides injected; 20 °C, HBS-TP (20 mM HEPES pH 7.4, 150 mM NaCl, 1 mM TCEP, 0.005% Tween-P20); steady-state 1:1 fit; settings: both partners purified
# T1 construct: human CrkII residues 134-191, N-terminal SH3 domain
# [2] = biological target: T1, CrkII NSH3 domain (CrkII^NSH3, residues …); assay: as above; settings: both partners purified; remark: listed apart in the source
# [3] = biological target: the molecule itself; assay: SEC-MALS; Superdex 200 Increase 10/300 GL, 20 mM HEPES pH 7.5, 150 mM NaCl, 1 mM TCEP, 0.5 ml/min
# [4] = biological target: T2, full length CrkII, monomer (CrkII^FL monomer) (human, UniProt P46108-1 1-304, biotin (EZ-Link NHS-PEG4-Biotin, 1:1 molar ratio) where it was immobilised (a1)); assay: SPR; biotinylated adapter proteins captured with a biotin CAPture kit, pY peptides as analytes; Biacore 8K+, 20 °C, HBS-TP (20 mM HEPES pH 7.4, 150 mM NaCl, 1 mM TCEP, 0.005% Tween-P20) with 2% DMSO; 1 M NaCl regeneration; steady state, 1:1 model; settings: both partners purified
# T2 construct: full length human CrkII, printed as UniProt P46108-1, residues 1-330
# [5] = biological target: T3, full length Grb2 (Grb2^FL, residues 1-217) (human, UniProt P62993-1 1-217, biotin (EZ-Link NHS-PEG4-Biotin, 1:1 molar ratio) where it was immobilised (a1)); assay: as above; settings: both partners purified
# T3 construct: full length human Grb2, UniProt P62993-1, residues 1-217
# [6] = biological target: T4, full length CrkII, dimer (CrkII^FL dimer) (human, UniProt P46108-1 1-304, biotin (EZ-Link NHS-PEG4-Biotin, 1:1 molar ratio) where it was immobilised (a1)); assay: as above; settings: both partners purified
# T4 construct: full length human CrkII, printed as UniProt P46108-1, residues 1-330
# [7] = biological target: T5, CrkII SH2 domain (CrkII^SH2, residues 6-120) (human, UniProt P46108-1 6-120, biotin (EZ-Link NHS-PEG4-Biotin, 1:1 molar ratio) where it was immobilised (a1)); assay: as above; settings: both partners purified
# T5 construct: human CrkII SH2 domain, UniProt P46108-1, residues 6-120; The His tag is TEV-cleavable and was cleaved 'when required'
# [8] = biological target: T6, Grb2 SH2 domain (Grb2^SH2) (human, UniProt P62993-1 60-152, biotin (EZ-Link NHS-PEG4-Biotin, 1:1 molar ratio) where it was immobilised (a1)); assay: as above; settings: both partners purified
# T6 construct: SH2 domain of human Grb2; This construct is not in the list of the methods; the other adapter constructs were made in E. coli C41 (DE3) with an N-terminal His8 tag
# [9] = biological target: T1, CrkII NSH3 domain (CrkII^NSH3, residues …); assay: ITC; ternary, sequential; CrkII^NSH3 (400 μM, syringe) titrated into the peptide (16.8 µM) left in the cell after a first titration with 14-3-3ɣ; 25 °C, 20 mM HEPES pH 7.4, 150 mM NaCl, 1 mM TCEP; settings: both partners purified
binder,measurement,setting,value
B1,Kd,[1],13 µM
B2,Kd,[2],1.7 µM
B3,stoichiometry N,[3],2
B4,Kd,[4],6.8 µM
same,Kd,[5],2.2 µM
same,Kd,[6],6.2 µM
same,Kd,[7],5.3 µM
same,Kd,[8],4.2 µM
B5,Kd,[9],0.7 µM
